Measurements: patent publication US20110082285A1 (STAIDSON BEIJING PHARMACEUTICAL, published 2011)

Target: T1, P75 (UniProt P08138 29-427)
T1 construct: whole, on cells
T1 sequence (looked up): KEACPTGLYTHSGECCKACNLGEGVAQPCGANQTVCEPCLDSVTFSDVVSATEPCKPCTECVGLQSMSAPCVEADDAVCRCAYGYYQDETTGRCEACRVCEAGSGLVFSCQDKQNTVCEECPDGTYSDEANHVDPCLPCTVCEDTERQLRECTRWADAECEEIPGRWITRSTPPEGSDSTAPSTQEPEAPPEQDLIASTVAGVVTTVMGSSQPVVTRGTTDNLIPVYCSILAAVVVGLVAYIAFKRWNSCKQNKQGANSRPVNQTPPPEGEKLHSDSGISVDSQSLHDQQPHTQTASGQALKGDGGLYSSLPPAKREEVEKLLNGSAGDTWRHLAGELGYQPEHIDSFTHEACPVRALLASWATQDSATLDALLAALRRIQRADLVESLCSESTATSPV
Test: I^125-labeled ligand crosslinked to A875 tumor cells expressing P75, immunoprecipitation, SDS-PAGE, autoradiography
Method: The WT mouse NGF and mutant NGF was labeled with I¹²⁵, then added to both the cells expressing TrkA and the A875 tumor cells expressing P75. The ligand and receptor were crosslinked by N-hydroxysuccinimidyl-4-azidobenzoate, the cells were lysed, and the cross-linked complex was immunoprecipitated overnight at 4° C.

B1: mutant NGF (mouse NGF-β mature peptide with Lys32, Lys34 and Glu35 changed to Ala) (ligand)
chain: SSTHPVFHMGEFSVCDSVSVWVGDKTTATDIAGAAVTVLAEVNINNSVFRQYFFETKCRASNPVESGCRGIDSKHWNSYCTTTHTFVKALTTDEKQAAWRFIRIDTACVCVLSRKATRRG
modifications: Labelled with I^125 (labelled residues not stated). Disulfide-bonded monomer; NGF-β acts as a non-covalent homodimer, one chain given.
notes: also called mutant NGF-β; NGF mutant
B1: no binding.
